Assay results reported in patent US7160677, “Transcription factor DP-1” (Topotarget UK Limited).

Assays:
[1] = molecular target: Gal4 activation domain-E2F-1 hybrid protein (pGAD.E2F-1) (yeast) (UniProt P04386); assay: cell-based or functional assay
[2] = molecular target: T1, wild-type E2F-1^1-437 (Homo sapiens (Human), UniProt Q01094 1-437, radiolabelled with 35S methionine (in vitro translated form) ; chain 1: radiolabelled with 35S methionine (in vitro translated form); letters unchanged); assay: GST pull-down (glutathione-agarose) of in vitro translated 35S-labelled E2F-1
T1 construct: Translated in reticulocyte lysate for the pull-down; The same full-length protein was expressed from pE2F-1/pCMV E2F-1 in the transfection assays; also called in vitro transcribed and translated E2F-1 polypeptide; pE2F-1
Description: DP-1 and E2F-1 were expressed as, and released from, GST fusion proteins as previously described (Girling et al., 1993). About 100-fold excess of the competing binding sites were used in gel retardation assays, with the binding site taken from the adenovirus E2A promoter (−71 to −50). The wild-type E2F-1 coding sequence was transcribed and further translated using reticulocyte lysate (Promega) and radiolabelled with ^35S methionine. In the dimerization assay (FIG. 2d), GST-DP-1 fusion protein was incubated with E2F-1 polypeptide for 30 min at 30° C., collected with glutathione-agarose (Sigma), and washed repeatedly with 0.1% NF40-in PBSA. Bound E2F-1 polypeptide was released by denaturation in SDS sample buffer and resolved in a 10% polyacrylamide gel.
GST fusion proteins, or GST protein along (track 2), were collected with glutathione-agarose beads and bound E2F-1 polypeptide released.

[3] = molecular target: DP-1(84-249)/E2F-1(89-437) heteromer (Mus musculus / Homo sapiens?, UniProt Q08639;Q01094 Q08639:84-249,Q01094:89-437); assay: EMSA; greater than E2F-1 alone; conditions: tags: DP-1 thrombin-released or GST; E2F-1 GST
Experimental: Cell extracts were prepared as previously described (La Thangue et al., 1990). Gel retardation in F9 EC and HeLa cell extracts (about 6.0 µg) in the presence of anti-DP-1 was performed as previously described (Girling et al., 1993), and immunoprecipitation with anti-DP-1 from HeLa cell extracts was performed by standard procedures. The immunoprecipitates were treated with 1% DOC and 1.5% NP40 and the detergent released material assayed for DRTF1/E2F by gel retardation and the presence of E2F-1 by immunoblotting with the anti-E2F-1 monoclonal antibody SQ41 (Kaelin et al., 1992). The anti-DP-1 antibodies, anti-peptide A and anti-peptide 18, have been previously described (Girling et al., 1993). Rabbit anti-E2F-1 antiserum (antiserum 134) was raised against a peptide which represents E2F-1 amino acid sequence 315 to 323. The sequences of the binding sites used to assess DNA binding specificity were derived from the adenovirus E2A promoter (−71 to −50) and were as follows: WT; […] (SEQ ID NO: 7); 62/60, […]; (SEQ ID NO: 8); 63, […] (SEQ ID NO: 9); 64, […] (SEQ ID NO: 10). In FIG. 2a (tracks 1 to 4), the adenovirus E2A promoter (−96 to +68) was used; in all other cases, the distal E2F site in the E2A promoter (sequences −71 to −50) was used. About 100-fold excess of competing binding sites were used in the gel retardation assays. […]

[4] = molecular target: DP-1(59-410)/E2F-1(89-437) heteromer (Mus musculus / Homo sapiens?, UniProt Q08639;Q01094 Q08639:59-410,Q01094:89-437); assay: EMSA; synergistic; anti-E2F-1 supershift, anti-DP-1 inhibits; conditions: tags: GST on both
[5] = molecular target: GST-E2F-1(89-437) (UniProt Q01094 Q01094:89-437); assay: EMSA; conditions: tags: GST
[6] = molecular target: DP-1(84-204)/E2F-1(89-437) heteromer (Mus musculus / Homo sapiens?, UniProt Q08639;Q01094 Q08639:84-204,Q01094:89-437); assay: EMSA; less than with DP-1 84-249; conditions: tags: DP-1 thrombin-released or GST; E2F-1 GST
Experimental: Cell extracts were prepared as previously described (La Thangue et al., 1990). Gel retardation in F9 EC and HeLa cell extracts (about 6.0 µg) in the presence of anti-DP-1 was performed as previously described (Girling et al., 1993), and immunoprecipitation with anti-DP-1 from HeLa cell extracts was performed by standard procedures. The immunoprecipitates were treated with 1% DOC and 1.5% NP40 and the detergent released material assayed for DRTF1/E2F by gel retardation and the presence of E2F-1 by immunoblotting with the anti-E2F-1 monoclonal antibody SQ41 (Kaelin et al., 1992). The anti-DP-1 antibodies, anti-peptide A and anti-peptide 18, have been previously described (Girling et al., 1993). Rabbit anti-E2F-1 antiserum (antiserum 134) was raised against a peptide which represents E2F-1 amino acid sequence 315 to 323. The sequences of the binding sites used to assess DNA binding specificity were derived from the adenovirus E2A promoter (−71 to −50) and were as follows: WT; […] (SEQ ID NO: 7); 62/60, […]; (SEQ ID NO: 8); 63, […] (SEQ ID NO: 9); 64, […] (SEQ ID NO: 10). In FIG. 2a (tracks 1 to 4), the adenovirus E2A promoter (−96 to +68) was used; in all other cases, the distal E2F site in the E2A promoter (sequences −71 to −50) was used. About 100-fold excess of competing binding sites were used in the gel retardation assays.

T1 sequence (Q01094 whole entry): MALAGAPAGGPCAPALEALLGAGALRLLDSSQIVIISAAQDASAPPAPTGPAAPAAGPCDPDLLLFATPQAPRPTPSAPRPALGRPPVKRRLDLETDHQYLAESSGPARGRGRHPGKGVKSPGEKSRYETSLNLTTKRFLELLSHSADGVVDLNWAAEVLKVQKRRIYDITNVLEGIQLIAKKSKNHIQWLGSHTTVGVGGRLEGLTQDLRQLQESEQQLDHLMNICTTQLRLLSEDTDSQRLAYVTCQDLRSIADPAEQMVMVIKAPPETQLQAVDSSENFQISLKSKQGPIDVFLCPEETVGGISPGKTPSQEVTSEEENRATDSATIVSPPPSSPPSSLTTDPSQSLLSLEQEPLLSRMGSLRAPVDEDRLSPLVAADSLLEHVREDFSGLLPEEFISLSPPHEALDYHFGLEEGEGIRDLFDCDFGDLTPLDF
Chain of DP-1(59-410)/E2F-1(89-437) heteromer (Q08639 59-410, chain 1 of 2): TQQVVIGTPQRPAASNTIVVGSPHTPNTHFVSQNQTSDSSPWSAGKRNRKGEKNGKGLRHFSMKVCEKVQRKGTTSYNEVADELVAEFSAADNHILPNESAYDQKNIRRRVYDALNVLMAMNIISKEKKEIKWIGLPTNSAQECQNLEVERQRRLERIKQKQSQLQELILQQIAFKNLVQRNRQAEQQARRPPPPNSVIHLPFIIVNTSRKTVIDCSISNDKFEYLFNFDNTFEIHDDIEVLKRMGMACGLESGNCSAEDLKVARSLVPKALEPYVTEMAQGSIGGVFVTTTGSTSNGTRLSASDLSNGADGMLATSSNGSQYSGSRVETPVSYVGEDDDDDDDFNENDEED
Chain of DP-1(59-410)/E2F-1(89-437) heteromer (Q01094 89-437, chain 2 of 2): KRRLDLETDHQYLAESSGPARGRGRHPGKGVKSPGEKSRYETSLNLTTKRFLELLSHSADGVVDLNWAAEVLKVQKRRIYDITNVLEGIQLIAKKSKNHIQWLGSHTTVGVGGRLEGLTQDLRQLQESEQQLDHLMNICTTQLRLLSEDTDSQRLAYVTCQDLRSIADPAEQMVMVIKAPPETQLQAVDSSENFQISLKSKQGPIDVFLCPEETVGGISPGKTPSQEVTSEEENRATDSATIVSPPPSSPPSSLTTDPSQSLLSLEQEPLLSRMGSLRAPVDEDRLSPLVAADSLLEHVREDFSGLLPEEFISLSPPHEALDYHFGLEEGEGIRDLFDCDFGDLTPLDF
Chain of DP-1(84-249)/E2F-1(89-437) heteromer (Q01094 89-437, one chain of several): as the sequence (Q01094 89-437, chain 2 of 2) above
Chain of GST-E2F-1(89-437) (Q01094 89-437, one chain of several): as the sequence (Q01094 89-437, chain 2 of 2) above
Chain of DP-1(84-204)/E2F-1(89-437) heteromer (Q01094 89-437, one chain of several): as the sequence (Q01094 89-437, chain 2 of 2) above

LexA-DP-1 hybrid protein (pLEX.DP-1) (from UniProt P0A7C2 1-202)
activity of p4xWT CYC1 (E2F site-dependent transcription in yeast, β-galactosidase) [1]: 50 fold | transcriptional activity of the LexA reporter construct (yeast two-hybrid, β-galactosidase) [1]: 75 fold

B1: GST-DP-1^84-166 (other)
chain: PNTHFVSQNQTSDSSPWSAGKRNRKGEKNGKGLRHFSMKVCEKVQRKGTTSYNEVADELVAEFSAADNHILPNESAYDQKNIR
notes: Uncleaved GST fusion; not shown: glutathione-S-transferase (GST)
binding result [2]: no binding (tested: about 2 µg GST fusion protein)

B2: E2A distal E2F site WT (-71 to -50) (dsDNA)
DNA 1: TAGTTTTCGCGCTTAAATTTGA
DNA 2: TCAAATTTAAGCGCGAAAACTA
binding result [3]: binds | binding result [4]: binds | binding result [5]: binds | binding result [6]: binds
